Experimental findings from the supplement of paper PMC12783771 are described below.

B1: library; a variant is named by its letters at X, in order (parent)
chain: MNIQIGELAKRTACPVVTIRFYEQEGLLPPPGRSRGNFRLYGEEHVERLQFIRHCRSLDMPLSDVRTLLSYRKRPDQDCGEVXMLLDEHIRQVESRIGALLELKHHLVELREACSGARPAQSCGILQXLSXCVCXTRGTTAHXSD
B2: library; a variant is named by its letters at X, in order (parent)
chain: B1 chain with D64X, K104X, L107X

Data set [1] covers variants of B1. Kind of data set: sfGFP reporter fluorescence (15 h) (µM FITC); higher = higher leak. To be noted: library round: Round 2; ligand: none. As to the method: (§1)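 Cell-free biosensing: 1 µL Echo-assembled CFE reactions with linear PbrR variant templates (5 nM) and pPbrR-sfGFP reporter, with 1 µM Pb, 30 µM Zn or no ligand; endpoint sfGFP fluorescence after 15 h at 30 °C calibrated as µM FITC. Round 2 ML-predicted PbrR mutants; up to 3 biological replicates.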

In data set [2] the parent is B1. The experiment in a line: sfGFP reporter fluorescence (15 h) (µM FITC); higher = stronger transcriptional activation. To be noted: library round: Round 2. As to the method:
as §1

Data set [3] covers variants of B2. The experiment in a line: sfGFP reporter fluorescence (15 h) (µM FITC); higher = higher leak. Particulars: library round: Round 3; ligand: none. The protocol: (§2)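 Cell-free biosensing: 1 µL Echo-assembled CFE reactions with linear PbrR variant templates (5 nM) and pPbrR-sfGFP reporter, with 1 µM Pb, 30 µM Zn or no ligand; endpoint sfGFP fluorescence after 15 h at 30 °C calibrated as µM FITC. Round 3 ML-predicted PbrR mutants; up to 3 biological replicates.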

Data set [4] covers variants of B2. Kind of data set: sfGFP reporter fluorescence (15 h) (µM FITC); higher = stronger transcriptional activation. Particulars: library round: Round 3. The protocol: as §2

Positions count from the first letter of the chain named. ± gives the standard deviation of the averaged measurements.

In the case of NGCDP V108I S115G, the values for the sfGFP reporter fluorescence in data set [1], in data set [2] (ligand: 1 µM Pb) and in data set [2] (ligand: 30 µM Zn) were 0.0507 ± 0.0021, 0.0573 ± 0.0016 and 0.115 ± 0.0092, respectively.

Consider NHDDL E109L I125L, for which the results for the sfGFP reporter fluorescence in data set [1], in data set [2] (ligand: 1 µM Pb) and in data set [2] (ligand: 30 µM Zn) were 0.048 ± 0.0018, 0.044 ± 0.0027 and 0.047 ± 0.0027, respectively.

Turning to NMDDP I3M P61N K104V L107C, the sfGFP reporter fluorescence in data set [1] came out at 0.501 ± 0.013; in data set [2] (ligand: 1 µM Pb) it was 0.989 ± 0.041; in data set [2] (ligand: 30 µM Zn), 2.79 ± 0.18.

Turning to NGDDP D87E S95A K104V R111A, the figures for the sfGFP reporter fluorescence in data set [1], in data set [2] (ligand: 1 µM Pb) and in data set [2] (ligand: 30 µM Zn) were 0.0648 ± 0.0053, 0.0918 ± 0.0068 and 0.74 ± 0.092, respectively.

For NGDRP D64T E88A, the figures for the sfGFP reporter fluorescence in data set [1], in data set [2] (ligand: 1 µM Pb) and in data set [2] (ligand: 30 µM Zn) were 0.369 ± 0.048, 0.499 ± 0.14 and 3.13 ± 0.29, respectively.

Turning to TGDDP V108L E112F, the sfGFP reporter fluorescence in data set [1] came to 0.0469 ± 0.0011; in data set [2] (ligand: 1 µM Pb) it was 0.0496 ± 0.0032; in data set [2] (ligand: 30 µM Zn), 0.0846 ± 0.0051.

As for TGDAP E109L, the figures for the sfGFP reporter fluorescence in data set [1], in data set [2] (ligand: 1 µM Pb) and in data set [2] (ligand: 30 µM Zn) were 0.043 ± 0.0023, 0.0797 ± 0.0069 and 0.366 ± 0.035, respectively.

In the case of NGDAL P61N, the sfGFP reporter fluorescence in data set [1] amounted to 0.0792 ± 0.0022; in data set [2] (ligand: 1 µM Pb), 0.235 ± 0.018; in data set [2] (ligand: 30 µM Zn), 1.57 ± 0.074.

As for NGDDP, the sfGFP reporter fluorescence in data set [1] stood at 0.0488 ± 0.0061; in data set [2] (ligand: 1 µM Pb), 0.0602 ± 0.0046; in data set [2] (ligand: 30 µM Zn), 0.684 ± 0.074.

For the variant TIDDP P61N D64K, the sfGFP reporter fluorescence in data set [1] was 0.106 ± 0.013; in data set [2] (ligand: 1 µM Pb), 0.617 ± 0.019; in data set [2] (ligand: 30 µM Zn), 1.75 ± 0.14.

For the variant NGAAF E112D, the results for the sfGFP reporter fluorescence in data set [1], in data set [2] (ligand: 1 µM Pb) and in data set [2] (ligand: 30 µM Zn) were 0.0594 ± 0.0017, 0.0886 ± 0.0049 and 0.82 ± 0.062, respectively.

In the case of TGDDP R111D E112H, the sfGFP reporter fluorescence in data set [1] turned out to be 0.0469 ± 0.002; in data set [2] (ligand: 1 µM Pb) it was 0.0446 ± 0.0019; in data set [2] (ligand: 30 µM Zn), 0.0529 ± 0.003.

For the variant NGDAP E109D G124A, the sfGFP reporter fluorescence stood at 0.0638 ± 0.0036 in data set [1], 0.0745 ± 0.0045 in data set [2] (ligand: 1 µM Pb) and 0.474 ± 0.07 in data set [2] (ligand: 30 µM Zn).

With NGAPL, the results for the sfGFP reporter fluorescence in data set [1], in data set [2] (ligand: 1 µM Pb) and in data set [2] (ligand: 30 µM Zn) were 0.0797 ± 0.0073, 0.16 ± 0.0081 and 1.22 ± 0.26, respectively.

Turning to NGAPY, the sfGFP reporter fluorescence was found to be 0.0801 ± 0.0048 in data set [1], 0.159 ± 0.0087 in data set [2] (ligand: 1 µM Pb) and 1.13 ± 0.12 in data set [2] (ligand: 30 µM Zn).

NMDDP L85I K104V: the sfGFP reporter fluorescence in data set [1] stood at 0.131 ± 0.013; in data set [2] (ligand: 1 µM Pb), 0.417 ± 0.024; in data set [2] (ligand: 30 µM Zn) it was 1.99 ± 1.7.

For the variant NGDDP M60L D64S L107C, the figures for the sfGFP reporter fluorescence in data set [1], in data set [2] (ligand: 1 µM Pb) and in data set [2] (ligand: 30 µM Zn) were 3.21 ± 0.37, 2.96 ± 0.13 and 3.58 ± 0.77, respectively.

In the case of NGDDP M60L P61N D64K K104V L107C, the sfGFP reporter fluorescence is 0.716 ± 0.071 in data set [1], 2.14 ± 0.18 in data set [2] (ligand: 1 µM Pb) and 3.11 ± 0.31 in data set [2] (ligand: 30 µM Zn).

Take NGDDW L110I S115G: the sfGFP reporter fluorescence is 0.0528 ± 0.0019 in data set [1], 0.0476 ± 0.0019 in data set [2] (ligand: 1 µM Pb) and 0.325 ± 0.019 in data set [2] (ligand: 30 µM Zn).

Consider SGDDP I90L V108N, for which the sfGFP reporter fluorescence worked out at 0.0447 ± 0.0012 in data set [1], 0.04614 ± 0.00039 in data set [2] (ligand: 1 µM Pb) and 0.0897 ± 0.013 in data set [2] (ligand: 30 µM Zn).

Take NGDRP P61N D64A: the sfGFP reporter fluorescence in data set [1] was determined as 0.111 ± 0.007; in data set [2] (ligand: 1 µM Pb), 0.221 ± 0.0096; in data set [2] (ligand: 30 µM Zn) it was 1.54 ± 0.25.

For NGAAP L107C, the sfGFP reporter fluorescence stood at 1.86 ± 0.29 in data set [1], 2.29 ± 0.21 in data set [2] (ligand: 1 µM Pb) and 3.05 ± 0.55 in data set [2] (ligand: 30 µM Zn).

Consider NHDAW, for which the sfGFP reporter fluorescence is 0.0656 ± 0.0096 in data set [1], 0.117 ± 0.0091 in data set [2] (ligand: 1 µM Pb) and 0.55 ± 0.081 in data set [2] (ligand: 30 µM Zn).

Turning to NGYPP V108I, the sfGFP reporter fluorescence in data set [1] was 0.0743 ± 0.0068; in data set [2] (ligand: 1 µM Pb) it was 0.149 ± 0.033; in data set [2] (ligand: 30 µM Zn) it was 1.1 ± 0.074.

On to NGAKP L107V, for which the sfGFP reporter fluorescence turned out to be 0.173 ± 0.011 in data set [1], 0.513 ± 0.055 in data set [2] (ligand: 1 µM Pb) and 3.38 ± 0.24 in data set [2] (ligand: 30 µM Zn).

With NGCDP I125V L129M, the sfGFP reporter fluorescence is 0.0493 ± 0.0017 in data set [1], 0.0435 ± 0.0022 in data set [2] (ligand: 1 µM Pb) and 0.0493 ± 0.003 in data set [2] (ligand: 30 µM Zn).

As for NGDDP P61N D64T E112V, the sfGFP reporter fluorescence in data set [1] amounted to 0.117 ± 0.013; in data set [2] (ligand: 1 µM Pb) it was 0.294 ± 0.026; in data set [2] (ligand: 30 µM Zn), 2.13 ± 0.17.

Regarding DNRCIDAK G124A, the figures for the sfGFP reporter fluorescence in data set [3], in data set [4] (ligand: 1 µM Pb) and in data set [4] (ligand: 30 µM Zn) were 0.395 ± 0.042, 1.51 ± 0.12 and 2.32 ± 0.17, respectively.

In the case of DTKLGDRR E109L, the sfGFP reporter fluorescence came to 0.0416 ± 0.0019 in data set [3], 0.103 ± 0.005 in data set [4] (ligand: 1 µM Pb) and 0.224 ± 0.0067 in data set [4] (ligand: 30 µM Zn).

Consider KNVCMDDP V16C P61N, for which the sfGFP reporter fluorescence was found to be 0.0997 ± 0.0099 in data set [3], 0.636 ± 0.067 in data set [4] (ligand: 1 µM Pb) and 0.579 ± 0.061 in data set [4] (ligand: 30 µM Zn).

Turning to DTKCGSAP, the sfGFP reporter fluorescence was 0.21 ± 0.0021 in data set [3], 1.43 ± 0.041 in data set [4] (ligand: 1 µM Pb) and 2.22 ± 0.1 in data set [4] (ligand: 30 µM Zn).

Take DTKCIDAK: the values for the sfGFP reporter fluorescence in data set [3], in data set [4] (ligand: 1 µM Pb) and in data set [4] (ligand: 30 µM Zn) were 0.305 ± 0.035, 1.87 ± 0.27 and 2.86 ± 0.33, respectively.

As for DNRCGAAP, the sfGFP reporter fluorescence in data set [3] came out at 1.21 ± 0.066; in data set [4] (ligand: 1 µM Pb), 2.35 ± 0.047; in data set [4] (ligand: 30 µM Zn), 2.34 ± 0.039.

Take DNVLGDDY H54A H142C: the sfGFP reporter fluorescence in data set [3] was found to be 0.0421 ± 0.0015; in data set [4] (ligand: 1 µM Pb), 0.0519 ± 0.0017; in data set [4] (ligand: 30 µM Zn), 0.136 ± 0.0031.

With DTKCIDAP I125L, the results for the sfGFP reporter fluorescence in data set [3], in data set [4] (ligand: 1 µM Pb) and in data set [4] (ligand: 30 µM Zn) were 0.059 ± 0.0049, 0.0617 ± 0.0061 and 0.614 ± 0.022, respectively.

Take DTKCMDAP G124A: the sfGFP reporter fluorescence in data set [3] came to 0.212 ± 0.015; in data set [4] (ligand: 1 µM Pb), 1.58 ± 0.084; in data set [4] (ligand: 30 µM Zn) it was 2.41 ± 0.38.

As to DNRLGAPL, the sfGFP reporter fluorescence is 0.0656 ± 0.0041 in data set [3], 0.262 ± 0.0096 in data set [4] (ligand: 1 µM Pb) and 0.905 ± 0.11 in data set [4] (ligand: 30 µM Zn).

On to DTKLGSDP Q121A H142A, for which the figures for the sfGFP reporter fluorescence in data set [3], in data set [4] (ligand: 1 µM Pb) and in data set [4] (ligand: 30 µM Zn) were 0.0408 ± 0.0014, 0.106 ± 0.0044 and 0.472 ± 0.015, respectively.

With KTVLIDDP P61T, the sfGFP reporter fluorescence in data set [3] turned out to be 0.0467 ± 0.002; in data set [4] (ligand: 1 µM Pb), 0.106 ± 0.0053; in data set [4] (ligand: 30 µM Zn) it was 0.251 ± 0.023.

For the variant DTKIGDDP V108L E112A, the sfGFP reporter fluorescence is 0.0428 ± 0.0025 in data set [3], 0.094 ± 0.0043 in data set [4] (ligand: 1 µM Pb) and 0.294 ± 0.03 in data set [4] (ligand: 30 µM Zn).

As to DTKLGCDP V108L Q121A, the sfGFP reporter fluorescence in data set [3] worked out at 0.043 ± 0.0018; in data set [4] (ligand: 1 µM Pb), 0.117 ± 0.0039; in data set [4] (ligand: 30 µM Zn) it was 0.116 ± 0.0027.

On to DNVCMDDP Y41F P61N, for which the sfGFP reporter fluorescence amounted to 0.828 ± 0.023 in data set [3], 2.98 ± 0.34 in data set [4] (ligand: 1 µM Pb) and 2.92 ± 0.049 in data set [4] (ligand: 30 µM Zn).

For DTKLGSPL, the sfGFP reporter fluorescence in data set [3] was 0.0411 ± 0.0014; in data set [4] (ligand: 1 µM Pb) it was 0.1583 ± 0.0015; in data set [4] (ligand: 30 µM Zn), 0.196 ± 0.019.

With DTKLGCDA Q121A, the figures for the sfGFP reporter fluorescence in data set [3], in data set [4] (ligand: 1 µM Pb) and in data set [4] (ligand: 30 µM Zn) were 0.0408 ± 0.00071, 0.107 ± 0.0045 and 0.117 ± 0.0042, respectively.
